Drawing on patent US6022856, this text covers IC50 for 1 substance.

The target in this test is type-2 neurotensin receptor of rats (rNT-R2) (rat). Nature of the test: displacement of 0.2 nM 125I-neurotensin from COS-3 cells transfected with rNT-R2.

Regarding “neuromedin N (from UniProt P30990) (peptide)”, the IC50 (in general, the concentration at which inhibition is half-maximal) stood at 5.1 nM.
